In PMC3285272 (Cell, 2012):

Experiments:
[1] = molecular target: T1, γζ-COP lacking the C-terminal appendage domain of γ-COP (γ-COP 1–617) (B. taurus, UniProt P53620 1-617; P35604 1-177); test: pull-down
T1 sequence (looked up) 1: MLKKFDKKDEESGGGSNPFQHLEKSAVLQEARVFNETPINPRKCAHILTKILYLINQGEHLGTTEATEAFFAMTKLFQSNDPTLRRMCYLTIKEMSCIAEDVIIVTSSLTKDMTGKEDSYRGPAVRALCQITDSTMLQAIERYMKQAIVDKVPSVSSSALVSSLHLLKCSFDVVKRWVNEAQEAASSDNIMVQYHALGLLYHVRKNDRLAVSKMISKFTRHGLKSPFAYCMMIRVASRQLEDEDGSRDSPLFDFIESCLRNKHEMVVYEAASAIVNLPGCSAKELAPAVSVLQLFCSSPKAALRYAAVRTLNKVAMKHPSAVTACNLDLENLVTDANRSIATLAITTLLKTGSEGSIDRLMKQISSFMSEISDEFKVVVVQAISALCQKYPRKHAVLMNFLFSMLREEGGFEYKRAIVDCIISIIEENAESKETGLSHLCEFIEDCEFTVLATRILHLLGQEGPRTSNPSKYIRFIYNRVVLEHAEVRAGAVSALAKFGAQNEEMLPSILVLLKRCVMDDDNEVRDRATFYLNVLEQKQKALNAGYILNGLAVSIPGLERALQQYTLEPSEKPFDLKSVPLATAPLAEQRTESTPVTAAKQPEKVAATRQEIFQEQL
T1 sequence (looked up) 2: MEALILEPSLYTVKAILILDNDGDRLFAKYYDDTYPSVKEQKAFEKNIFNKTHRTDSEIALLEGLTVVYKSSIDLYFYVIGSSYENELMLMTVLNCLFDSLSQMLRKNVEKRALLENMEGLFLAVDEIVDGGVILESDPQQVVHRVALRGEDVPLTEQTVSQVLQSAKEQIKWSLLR

[2] = molecular target: T2, full-length γζ-COP dimer (B. taurus, UniProt P53620 1-874; P35604 1-177); test: pull-down
T2 sequence (looked up) 1: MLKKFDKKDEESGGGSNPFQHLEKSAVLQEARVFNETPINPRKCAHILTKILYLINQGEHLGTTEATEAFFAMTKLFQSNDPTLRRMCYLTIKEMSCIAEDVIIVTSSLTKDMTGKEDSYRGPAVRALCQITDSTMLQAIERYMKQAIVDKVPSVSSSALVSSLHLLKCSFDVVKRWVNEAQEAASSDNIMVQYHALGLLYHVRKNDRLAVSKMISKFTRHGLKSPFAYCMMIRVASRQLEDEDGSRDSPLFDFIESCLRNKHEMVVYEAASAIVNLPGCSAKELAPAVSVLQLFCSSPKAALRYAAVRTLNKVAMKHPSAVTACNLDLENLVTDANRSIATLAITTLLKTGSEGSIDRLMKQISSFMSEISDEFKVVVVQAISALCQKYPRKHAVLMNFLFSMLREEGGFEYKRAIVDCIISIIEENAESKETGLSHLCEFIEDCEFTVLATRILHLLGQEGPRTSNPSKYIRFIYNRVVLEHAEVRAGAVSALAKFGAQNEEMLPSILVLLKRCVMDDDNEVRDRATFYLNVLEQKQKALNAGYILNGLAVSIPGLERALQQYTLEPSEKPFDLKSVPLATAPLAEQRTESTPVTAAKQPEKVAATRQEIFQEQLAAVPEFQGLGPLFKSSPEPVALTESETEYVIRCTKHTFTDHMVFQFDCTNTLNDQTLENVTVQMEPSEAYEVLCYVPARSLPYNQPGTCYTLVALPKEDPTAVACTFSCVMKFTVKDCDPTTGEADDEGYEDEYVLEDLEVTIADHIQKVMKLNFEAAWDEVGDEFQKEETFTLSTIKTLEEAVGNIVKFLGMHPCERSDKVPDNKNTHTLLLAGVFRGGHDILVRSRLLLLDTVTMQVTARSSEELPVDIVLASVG
T2 sequence (looked up) 2: T1 sequence (looked up) 2

binding result [1]: binds
binding result [2]: binds
B1: S. cerevisiae Arf1 (residues 18–181) with a C-terminal GST tag (domain or fragment, UniProt P11076 18-181, looked up)
chain: MRILMVGLDGAGKTTVLYKLKLGEVITTIPTIGFNVETVQYKNISFTVWDVGGQDRIRSLWRHYYRNTEGVIFVVDSNDRSRIGEAREVMQRMLNEDELRNAAWLVFANKQDLPEAMSAAEITEKLGLHSIRNRPWFIQATCATSGEGLYEGLEWLSNSLKNST
